Columns and labels:
[1] = target: cyclooxygenase-2 (COX-2), endogenous in human neutrophils (human (endogenous in neutrophils)) (UniProt P35354)
[2] = target: cyclooxygenase-2 (COX-2), endogenous in human neutrophils (human (endogenous in neutrophils)) (UniProt P35354); remark: listed apart in the source

UniProt P35354, sequence (P35354 18-604): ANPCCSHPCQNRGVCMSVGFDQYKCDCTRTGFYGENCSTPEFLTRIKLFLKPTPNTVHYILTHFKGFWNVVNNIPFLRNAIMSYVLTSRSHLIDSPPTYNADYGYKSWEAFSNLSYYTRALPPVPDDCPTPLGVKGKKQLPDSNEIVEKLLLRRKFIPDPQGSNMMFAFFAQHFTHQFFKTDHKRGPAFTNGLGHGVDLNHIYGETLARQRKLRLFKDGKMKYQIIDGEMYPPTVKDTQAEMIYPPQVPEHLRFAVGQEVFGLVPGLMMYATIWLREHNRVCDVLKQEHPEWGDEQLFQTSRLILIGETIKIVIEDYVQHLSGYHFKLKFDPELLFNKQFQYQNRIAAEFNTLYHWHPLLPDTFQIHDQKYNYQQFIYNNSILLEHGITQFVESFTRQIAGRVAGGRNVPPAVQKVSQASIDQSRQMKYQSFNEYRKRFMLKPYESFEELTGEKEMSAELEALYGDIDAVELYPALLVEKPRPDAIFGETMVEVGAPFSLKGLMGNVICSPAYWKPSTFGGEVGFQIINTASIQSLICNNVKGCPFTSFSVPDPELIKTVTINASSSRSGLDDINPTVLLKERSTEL

PGE2 production (ELISA) from arachidonic acid (10 µM) by purified human recombinant COX-2 (1 U/sample, Cayman) with increasing amounts of hrNuc (fold over basal levels) [1]: 4
PGE2 production (ELISA) from arachidonic acid (10 µM) by lysates of COX-2-expressing neutrophils with increasing quantities of hrNuc [2]: 5 fold
Substance: human recombinant nucleobindin (hrNuc), full length (from UniProt Q02818 27-461) (natural protein)
